Experimental data taken from patent US20140248303A1 (ST JUDE CHILDREN S RESEARCH HOSPITAL, published 2014).

Target: T1, 37/67 laminin receptor (LR) (Homo sapiens (Human), UniProt P08865 2-295)
T1 construct: also called LRP
Test: adhesion of construct-labeled latex microspheres to fixed TNF-activated RBCEC6 cells

B1: CbpA-R12 (construct containing domain 1 and domain 2) (other)
chain: EPGEKVAEAKKKVEEAEKKAKDQKEEDRRNYPTITYKTLELEIAESDVEVKKAELELVKVKANEPRDEQKIKQAEAEVESKQAEATRLKKIKTDREEAEEEAKRRADAKEQGKPKGRAKRGVPGELATPDKKENDAKSSDSSVGEETLPSPSLKPEKKVAEAEKKVEEAKKKAEDQKEEDRRNYPTNTYKTLELEIAESDVEVKKAELELVKEEAKEPRNEEKVKQAKAEVESKKAEATRLEKIKTDRKKAEEEAKRKAAEEDKVKEK
notes: On latex microspheres
bead adherence to RBCEC6 cells, % (compared with full length CbpA-NR12 beads): 226%

B2: CbpA-R2 (other)
chain: PEKKVAEAEKKVEEAKKKAEDQKEEDRRNYPTNTYKTLELEIAESDVEVKKAELELVKEEAKEPRNEEKVKQAKAEVESKKAEATRLEKIKTDRKKAEEEAKRKAAEEDKVKEKP
bead adherence to RBCEC6 cells, % (compared with full length CbpA-NR12 beads): 6%
binding result: no binding

B3: CbpA-N (domain N) (other)
chain: ENEGATQVPTSSNRANESQAEQGEQPKKLDSERDKARKEVEEYVKKIVGESYAKSTKKRHTITVALVNELNNIKNEYLNKIVESTSESQLQILMMESRSKVDEAVSKFEKDSSSSSSSDSSTKPEASDTAKPNKPT
notes: On latex microspheres
bead adherence to RBCEC6 cells, % (compared with full length CbpA-NR12 beads): 23%
binding result: no binding
